Test results taken from patent EP4813403A1, “USE OF GLP-1R/GIPR DOUBLE-TARGET AGONIST IN PREPARING ANIMAL DRUG” (Hangzhou Zhongmeihuadong Pharmaceutical Co., Ltd., priority 2023, dated 2025).

Assays:
[1] = biological target: T1, human GIP receptor (human) (UniProt P48546); experiment: cell-based or functional assay
T1 sequence (looked up): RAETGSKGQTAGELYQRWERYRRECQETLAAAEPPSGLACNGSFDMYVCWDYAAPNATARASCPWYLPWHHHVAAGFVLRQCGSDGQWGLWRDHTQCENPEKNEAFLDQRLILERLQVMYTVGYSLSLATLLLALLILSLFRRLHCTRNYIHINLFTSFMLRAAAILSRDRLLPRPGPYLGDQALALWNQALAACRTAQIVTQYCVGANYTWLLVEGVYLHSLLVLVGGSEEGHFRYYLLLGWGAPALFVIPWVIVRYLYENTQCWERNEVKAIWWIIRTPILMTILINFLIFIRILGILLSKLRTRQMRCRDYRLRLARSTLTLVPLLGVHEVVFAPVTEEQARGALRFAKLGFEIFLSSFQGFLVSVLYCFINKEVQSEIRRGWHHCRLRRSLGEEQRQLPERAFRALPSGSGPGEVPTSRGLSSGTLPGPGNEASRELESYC

[2] = biological target: human GLP-1 receptor (human) (UniProt P43220); experiment: cell-based or functional assay
human GLP-1 receptor (human), sequence (P43220 24-463): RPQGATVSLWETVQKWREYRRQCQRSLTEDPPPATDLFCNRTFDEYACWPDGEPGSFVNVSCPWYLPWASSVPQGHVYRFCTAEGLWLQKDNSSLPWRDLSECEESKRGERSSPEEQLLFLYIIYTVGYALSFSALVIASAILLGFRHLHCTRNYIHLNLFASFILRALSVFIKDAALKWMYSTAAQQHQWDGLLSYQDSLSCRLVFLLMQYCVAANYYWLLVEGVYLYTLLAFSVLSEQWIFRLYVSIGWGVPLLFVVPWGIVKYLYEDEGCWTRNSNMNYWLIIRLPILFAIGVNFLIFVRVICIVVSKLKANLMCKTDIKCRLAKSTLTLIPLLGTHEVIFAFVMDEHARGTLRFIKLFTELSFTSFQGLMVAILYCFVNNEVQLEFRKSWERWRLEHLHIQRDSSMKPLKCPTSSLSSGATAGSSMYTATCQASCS

[3] = biological target: human GLP-1 receptor (human) (UniProt P43220); experiment: radioligand competition ([125I]GLP-1 displaced), membranes of cells over-expressing human GLP-1R; Ki by Cheng-Prusoff
[4] = biological target: T1, human GIP receptor (human); experiment: radioligand competition ([125I]GIP displaced), membranes of cells over-expressing human GIPR; Ki by Cheng-Prusoff

YXEGTXTSDYXIXLDKQAQAEFVKWLLKGGPSSGAPPPSK (X1 is Aib; X2 is αMePhe; X3 is Aib; X4 is Aib; C-terminal primary amide) [P001]
EC50 value (ratio: EC50 of endogenous ligand / EC50 of test compound), LANCE Ultra cAMP assay, HEK293/GIPR cells [1]: 7.13 | EC50 value (ratio: EC50 of endogenous ligand / EC50 of test compound), cAMP reporter gene (luciferase) assay, HEK293/CRE/GLP-1R cells [2]: 52.1 | Ki ratio (Ki of endogenous ligand / Ki of test compound) [3]: 19.5 | Ki ratio (Ki of endogenous ligand / Ki of test compound) [4]: 8.82

B1: P007 (peptide)
peptide: YXEGTXTSDYXIXLDKQAQAEFVKWLLKGGPSSGAPPPSK
modifications: Aib at 2; αMePhe at 6; Aib at 11; Aib at 13; K at position 24 ε-amino conjugated with ([2-(2-amino-ethoxy)-ethoxy]-acetyl)2-(γ-Glu)1-CO-(CH2)16-CO2H; C-terminal primary amide
EC50 value (ratio: EC50 of endogenous ligand / EC50 of test compound), cAMP reporter gene (luciferase) assay, HEK293/CRE/GLP-1R cells [2]: 5.84 | Ki ratio (Ki of endogenous ligand / Ki of test compound) [3]: 0.47
